Consider 4 molecules from patent US20220313789A1, “TARGETING MELANOCORTIN 3 RECEPTOR FOR TREATMENT/PREVENTION OF EATING, METABOLISM, AND/OR EMOTIONAL DISORDERS” (The Regents of the University of Michigan, priority 2019, published 2022).

One may read the IC50 as the concentration needed to halve the response being measured. As usually defined, the EC50 is the concentration that produces a half-maximal response.

For one assay, the system named is PVN MC4R neurons. Put plainly: In vivo calcium imaging (GCAMP6s endomicroscopy) of PVN MC4R neurons. Also on record: species or system mice. Particulars: 10 mg/kg, i.p., vs baseline.
Assay [1] concerns the target T1, MC3R (Mus musculus, UniProt P33033).
T1 construct: from tissue; host or cells: living mice (C57/BL6J background), central nervous system / hypothalamus
The assay can be described thus: MC3R agonist feeding assays (food intake, body weight) in WT mice. It counts as in vivo. The conditions noted are these: for Acute food intake: 10 mg/kg, i.p., ad libitum fed mice, relative to vehicle; for 24-hour food intake / body weight: single peripheral injection. As to the method:
Clozapine-N-Oxide (CNO) was purchased from Enzo Life Sciences. On the day of experiments fresh stock CNO (1 mg/0.1 ml) was prepared in water. CNO was administered via i.p. injections (200 ul Saline; 1 mg/kg). […] (5 ug; 500 nl DMSO).
Behavioral assays were performed on ad libitum fed mice. Mice were single caged for at least one week prior to starting feeding assays. Feeding assays were performed during the light period.
For peripheral administration of MC3R agonist compounds, mice were first habituated to vehicle injections (i.p.; saline in 10% DMSO; 200 ul) for 2-4 consecutive days. Following habituation and consecutive days of stable food intake in response to vehicle injections, agonist compounds were administered (i.p.; 10 mg/kg; saline in 10% DMSO). Food intake was measured following drug or vehicle administration by carefully removing food from the food hopper and weighing on a scale. Cages were changed daily during acute feeding assays to prevent spillage of food from the food hopper.
For central administration of MC3R agonist compounds we first administered vehicle injections (500 nl DMSO) for 2-4 consecutive days to habituate mice to handling and injection. […] Body weight was measured daily immediately prior to injections.

Assay [2] addresses T2, MC4R (Homo sapiens, UniProt P32245). The conditions noted are these: cited from earlier work.
Assay [3] deals with T2, MC4R. The conditions noted are these: cited from earlier work. This is another data set of the same source.
Assay [4] addresses T3, MC3R (Homo sapiens, UniProt P41968). Particulars: cited from earlier work.
Assay [5] addresses T3, MC3R. The conditions noted are these: cited from earlier work. This is another data set of the same source.
For assay [6], the target named is T3, MC3R. Put plainly: Primary HTS antagonist assay / screen for MC3R antagonists.
Text: Primary HTS antagonist assay. […] (B): Positive and negative assay with kinetics of antagonist and agonist addition indicated. (C): Scatterplot of corrected and normalized data. Typical Z′ factors are above 0.5.
The subject of assay [7] is arcuate MC3R expressing neurons (hM4Di). The assay can be described thus: DREADD (hM4Di) inhibition of arcuate MC3R neurons by CNO. It counts as in vivo. The conditions noted are these: hM4Di transfected mice vs WT control. An excerpt: (§1) FIG. 2. Potent Bidirectional Regulation of Feeding by DREADD Activation of MC3R ARC neurons. (A) Representative images showing hM3Dq-mCherry (red), and cfos (green), in the arcuate nucleus of a mouse transduced with hM3Dq in arcuate MC3R expressing neurons following CNO or saline administration. Panels on right are an enlargement of the boxed sections. (B) Quantification of cfos expression in the arcuate nucleus following i.p. injections of saline or CNO (unpaired Student's t-test). […] (C) Acute feeding assays following DREADD mediated activation of arcuate MC3R neurons. Activation of MC3R neurons increased food intake at all times tested (2-way ANOVA with Bonferroni post-hoc test, n=10 mice). (D) Change in body weight following a single injection of CNO or saline. […] (E) Daily food intake in MC3R-Cre mice targeted with the inhibitory DREADD hM4Di in arcuate MC3R expressing neurons. […] (F) Change in body weight following long term CNO injections in hM4Di transfected and WT mice. […]
(§2) To evaluate the effects of DREADD mediated manipulation of ARC-MC3R neurons on feeding and body weight, mice were habituated to twice daily vehicle injections (i.p., saline; 200 ul). […] Food intake was measured twice daily (10 am and 6 pm) during chronic i.p. injection experiments. Body weight was measured daily at 10 am immediately prior to administering CNO/saline. […]

The test system of assay [8] is arcuate MC3R expressing neurons (hM3Dq). Put plainly: DREADD (hM3Dq) activation of arcuate MC3R neurons by CNO. It counts as in vivo, mice.
Text: as §1, §2

For another assay, the system named is WT mice. Put plainly: CNO administration to WT mice. The class given is in vivo. Here is the method:
FIG. 9. […] 24-hour food intake following i.p. injections of saline or CNO. […] Data represented as mean+/−s.em. Data analyzed with Student's paired t-test. n=15 mice
Given the enhanced expression of MC3R in the orexigenic arcuate AgRP neurons, relative to POMC and vGLUT2 neurons, experiments were conducted during development of embodiments herein to determine whether the dominant role of MC3R in the arcuate is to stimulate food intake and increase body weight. A previously characterized (Ref. 18; herein incorporated by reference in its entirety) MC3R-Cre mouse model in which Cre recombinase is exclusively expressed in cells containing MC3R was utilized for these experiments. To selectively activate the MC3R expressing neurons in the arcuate, a Cre dependent AAV viral vector expressing the DREADD (designer receptor exclusively activated by designer drugs) activator hM3Dq was stereotaxically targeted to the arcuate nucleus in MC3R-Cre mice (Refs 22-23; herein incorporated by reference in their entireties) (FIG. 2). It was validated that CNO administration activates ARC-MC3R neurons by measuring the neuronal activity marker, cfos, in response to CNO or saline injections. […] To determine if chronic activation of ARC-MC3R neurons is a viable strategy for increasing food intake and body weight CNO was administered twice daily for five consecutive days. […]

Entries after “also recorded” stand apart in the source; their conditions may differ. Bridge positions count the residues as written; N and C are the ends. Square brackets hold non-standard residues; d marks the D form. Ends that are not written are not given here. d2Nal = N[C@H](Cc1ccc2ccccc2c1)C(=O)O; Ac6c = NC1(C(=O)O)CCCCC1; Nle = CCCC[C@H](N)C(=O)O

T1 sequence (P33033 whole entry): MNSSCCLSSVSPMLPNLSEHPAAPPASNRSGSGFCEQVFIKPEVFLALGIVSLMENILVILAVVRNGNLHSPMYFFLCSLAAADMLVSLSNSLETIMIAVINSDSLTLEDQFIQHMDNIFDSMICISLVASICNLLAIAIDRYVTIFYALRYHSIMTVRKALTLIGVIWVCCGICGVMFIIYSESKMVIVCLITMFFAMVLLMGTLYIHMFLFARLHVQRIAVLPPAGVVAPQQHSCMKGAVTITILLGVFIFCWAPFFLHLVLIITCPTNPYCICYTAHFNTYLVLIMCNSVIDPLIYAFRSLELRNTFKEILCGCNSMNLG
T3 sequence (P41968 whole entry): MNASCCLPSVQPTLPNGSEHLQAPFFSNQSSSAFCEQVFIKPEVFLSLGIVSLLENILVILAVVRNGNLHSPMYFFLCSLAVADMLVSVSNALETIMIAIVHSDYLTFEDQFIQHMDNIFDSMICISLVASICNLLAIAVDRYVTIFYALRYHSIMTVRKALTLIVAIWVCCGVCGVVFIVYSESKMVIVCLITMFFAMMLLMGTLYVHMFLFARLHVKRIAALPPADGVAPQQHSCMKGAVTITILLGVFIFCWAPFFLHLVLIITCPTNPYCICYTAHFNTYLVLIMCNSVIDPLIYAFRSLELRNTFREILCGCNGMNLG
T2 sequence (P32245 whole entry): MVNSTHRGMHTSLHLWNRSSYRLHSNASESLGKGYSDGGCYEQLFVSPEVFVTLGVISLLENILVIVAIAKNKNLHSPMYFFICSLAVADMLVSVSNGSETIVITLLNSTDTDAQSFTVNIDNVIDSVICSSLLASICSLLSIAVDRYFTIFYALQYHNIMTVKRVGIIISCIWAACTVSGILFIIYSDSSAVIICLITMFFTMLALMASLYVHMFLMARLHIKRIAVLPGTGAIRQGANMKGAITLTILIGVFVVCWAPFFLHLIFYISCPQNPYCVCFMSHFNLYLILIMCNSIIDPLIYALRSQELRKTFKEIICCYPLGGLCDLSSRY
Experimental for PVN MC4R neurons: (left panels): Heat map displaying relative fluorescence, determined by endomicroscopy (Inscopix) of individual PVN MC4R neurons for five minutes of baseline recording, followed by five minutes of recording in response to a saline injection.
D: Change in florescence following i.p. administration of saline. […] F: Change in fluorescence following i.p. administration of the MC3R agonist C18 (10 mg/kg, i.p.). […] G: Heat plot showing real-time change in fluorescence activity in a representative mouse during baseline and following administration of C18. H: Average trace of the relative change in fluorescence before and after C18 administration. […] Data represents mean+/−s.e.m. for panels D-F. Panels D, F, and I analyzed with paired Student's t-test.

For “Ac-Nle-c[Asp-Pro-Pro-DNal(2′)-Arg-Trp-Lys]-NH2 (Ac-[Nle]DPP[d2Nal]RWK-NH2; lactam 2-8) [PG990]”, in the assay on PVN MC4R neurons, the “Fluorescence activity of PVN MC4R neurons” value is “Fluorescence activity was suppressed”. For the same molecule, in the assay with MC3R [1], the Acute food intake result was “acutely stimulated food intake”, the 24-hour food intake entry was “no significant difference” and the body weight result is listed as “no significant difference”. The weight gain with MC3R [1] (3 days of treatment) is listed as 8%. The “24 h food intake” value with MC3R [1] (PG990 series of peptides, route not given in the sentence) was “increases 24 h food intake”.

Regarding “[Ac6c-His-DPhe-Arg-Trp-Asp]-NH2 ([Ac6c]H[dF]RWD-NH2; N-terminus assumed; SMILES N=C(N)NCCC[C@H](NC(=O)[C@@H](Cc1ccccc1)NC(=O)[C@H](Cc1c[nH]cn1)NC(=O)C1(N)CCCCC1)C(=O)N[C@@H](Cc1c[nH]c2ccccc12)C(=O)N[C@@H](CC(=O)O)C(N)=O) [FMMC-5, MC3R peptide agonist]”, in the assay with MC4R [2], the IC50 is 260 nM. Also, in the assay with MC4R [3], the half-maximal effective concentration (EC50) is 280 nM. The IC50 with MC3R [4] is 10 nM. Also, the half-maximal effective concentration (EC50) in the assay with MC3R [5] was 30 nM. Also, in the assay with MC3R [1], the Acute food intake result is on record as “acutely stimulated food intake”, the 24-hour food intake result is listed as “no significant difference” and the body weight entry is on record as “no significant difference”.

On to Polymyxin B, for which the “MC3R over MC4R selectivity” value on MC3R [6] was “four-fold”. The “potency as MC3R antagonist” value at MC3R [6] (screen of Vanderbilt chemical library) is “submicromolar potency”.

`C[N+]1([O-])CCN(C2=Nc3cc(Cl)ccc3Nc3ccccc32)CC1` [CNO, Clozapine-N-Oxide]: the “Change in body weight” value in assay [7] (long term / twice daily CNO) is “reduced BW in hM4Di transfected mice; also recorded: reduced both food intake and BW”; in assay [8] (single injection of CNO or saline, hM3Dq mice, CNO 0.1 mg/kg), “Body weight increased on the day following CNO injection, remaining elevated five days following CNO injection”. In addition, the Daily food intake result in assay [7] (twice daily CNO) is “reduced daily food intake in hM4Di transfected mice; also recorded: reduced both food intake and BW”. The “cfos expression in the arcuate nucleus” value in assay [8] (i.p. CNO vs saline, hM3Dq in arcuate MC3R neurons) is “increased cfos expression in the arcuate nucleus; also recorded: Dense cfos expression was observed in ARC-MC3R neurons”. Further, the body weight entry in the assay on WT mice (CNO injections, WT littermate control mice) was “No change in food intake or body weight; also recorded: No effect on BW”. Also, the food intake result in the assay on WT mice (i.p. CNO vs saline, WT / littermate control mice) is listed as “No change in food intake or body weight; also recorded: No difference in food intake was detected”.
